± gives the uncertainty stated by the source.
Assay: protein stability index of a GFP-peptide fusion (yeast GPS) (PSI 1-4); higher = more stable; sorted into four equal gates, so the index is relative within each strain
Procedure, shortened: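 Plasmids in a pooled yeast library fused tiled 17-residue yeast protein peptides downstream of GFP and also expressed Cherry. Mid-log cultures grown without leucine were sorted into four equal gates by GFP/Cherry fluorescence ratio. Each gate's plasmids were PCR-amplified and Illumina-sequenced, and reads were matched to strains by barcodes. The protein stability index is derived by multiplying each gate's read frequency by its gate number and summing the results.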

| Sequence | protein stability index (doa10∆) | protein stability index (pdr5∆) | protein stability index (san1∆) | protein stability index (ubr1∆) |
| --- | --- | --- | --- | --- |
| SKTLSLIQSYSLLDKPD [FAS1] | 2.18 ± 0.078 | 2.01 ± 0.057 | 2.12 ± 0.21 | 2.14 ± 0.074 |
| SLDTLELESITESITHD [NUT1] | 2.57 ± 0.063 | 2.42 ± 0.046 | 2.76 ± 0.059 | 2.34 ± 0.035 |
| SLEQRTLNPDLFLYKEL [RPC82] | 3.28 ± 0.28 | 3.13 ± 0.19 | 3.21 ± 0.092 | 3.74 ± 0.27 |
| SLINSHLKILASSNFPF [RPC82] | 2.64 ± 0.066 | 2.3 ± 0.075 | 2.28 ± 0.073 | 2.02 ± 0.042 |
| SLISTRNDSTVNDSVIS [BRN1] | 2.6 ± 0.081 | 2.81 ± 0.077 | 2.72 ± 0.06 | 2.67 ± 0.059 |
| SLKDLSSLRNQELLNAE [RPN3] | – | 2.15 ± 0.22 | 3.34 ± 0.14 | – |
| SLKGYKIENSVQIGAEI [CSI1] | – | 3.21 ± 0.2 | 3.25 ± 0.13 | 3.17 ± 0.17 |
| SLLEKDIDAVNGAVGKR [ISW2] | 2.92 ± 0.09 | 3.24 ± 0.081 | 2.9 ± 0.098 | 3.31 ± 0.064 |
| SLLLSSSFKEDCLSFAP [SSN2] | 2.56 ± 0.24 | 3.17 ± 0.14 | 2.76 ± 0.14 | 3.2 ± 0.19 |
| SLRTPIAPKITPKVVRS [SEC65] | 3.16 ± 0.093 | 3.05 ± 0.063 | 2.87 ± 0.1 | 3.17 ± 0.059 |
| SLSFGSGSAGANPAGAS [YJL041W/NSP1] | 2.92 ± 0.13 | 2.89 ± 0.13 | 2.75 ± 0.18 | 3.1 ± 0.085 |
| SLSRDFVMKTRRRKGIS [SNU114] | 3.25 ± 0.2 | 3.31 ± 0.11 | 3.02 ± 0.074 | 2.77 ± 0.22 |
| SLTISLYASDYASYFPY [RPN7] | 1.42 ± 0.036 | 1.64 ± 0.035 | 1.6 ± 0.049 | 1.67 ± 0.028 |
| SLVFNRKLAVERAGHLL [PRE5] | 2.08 ± 0.2 | 1.5 ± 0.18 | 1.43 ± 0.19 | 1.71 ± 0.21 |
| SLVKYPELLDSLAILGM [SWI1] | 1.89 ± 0.06 | 2.31 ± 0.054 | 1.99 ± 0.075 | 2.16 ± 0.051 |
| SLVSTQSSSSTRSHEYG [REC8] | 2.86 ± 0.08 | 3.04 ± 0.11 | 2.72 ± 0.057 | 3.19 ± 0.12 |
| SMATPTHSDSHEDMKRR [ROX3] | 2.77 ± 0.11 | 2.94 ± 0.11 | 2.53 ± 0.091 | 2.73 ± 0.04 |
| SMENTPKVPVSAAATPS [GAL11] | 2.07 ± 0.045 | 2.19 ± 0.049 | 2.24 ± 0.065 | 1.78 ± 0.036 |
| SMENYHLLIKIIRQLSE [SRB8] | 1.71 ± 0.058 | 1.77 ± 0.064 | 2.31 ± 0.11 | 1.63 ± 0.046 |
| SMIEKGGDWERRNRYKT [RPN7] | 3.01 ± 0.14 | 3.43 ± 0.22 | – | – |
| SMKDRAQHAVILDQEKY [RPS25A] | 1.55 ± 0.094 | 2 ± 0.13 | 2.42 ± 0.14 | 2.23 ± 0.081 |
| SMRIQILRRQAILRQQQ [GAL11] | 3.19 ± 0.29 | 2.98 ± 0.17 | 3.17 ± 0.19 | – |
| SMRTIMKANPALYVLRE [PRP8] | – | 1.91 ± 0.29 | – | 1.37 ± 0.28 |
| SNADTNQNSDMKKKLEL [SRB8] | 3.14 ± 0.13 | 3.21 ± 0.15 | 2.75 ± 0.11 | 3.31 ± 0.17 |
| SNAFYSVLRDTLVAQNL [SMC4] | 2.13 ± 0.086 | 2.09 ± 0.054 | 1.94 ± 0.076 | 2.13 ± 0.033 |
| SNASRRKLINYTKKHLS [RPN4] | 1.73 ± 0.071 | 1.27 ± 0.056 | 1.56 ± 0.097 | 1.34 ± 0.042 |
| SNDKFVHVQLLINLKIS [SRB8] | 1.51 ± 0.042 | 1.82 ± 0.045 | 1.6 ± 0.064 | 1.61 ± 0.034 |
